The source of these data is PMC8003784, “Two Key Amino Acids Variant of α-L-arabinofuranosidase from Bacillus subtilis Str. 168 with Altered Activity for Selective Conversion Ginsenoside Rc to Rd” (Molecules, 2021).

The labels stand for the following.
B1: BsAbfA (Bacillus subtilis subsp. subtilis str. 168) (protein)
chain: MKKARMIVDKEYKIGEVDKRIYGSFIEHMGRAVYEGIYEPDHPEADEDGFRKDVQSLIKELQVPIIRYPGGNFLSGYNWEDGVGPVENRPRRLDLAWQTTETNEVGTNEFLSWAKKVNTEVNMAVNLGTRGIDAARNLVEYCNHPKGSYWSDLRRSHGYEQPYGIKTWCLGNEMDGPWQIGHKTADEYGRLAAETAKVMKWVDPSIELVACGSSNSGMPTFIDWEAKVLEHTYEHVDYISLHTYYGNRDNNLPNYLARSMDLDHFIKSVAATCDYVKAKTRSKKTINLSLDEWNVWYHSNEADKKVEPWITARPILEDIYNFEDALLVGSLLITMLQHADRVKIACLAQLVNVIAPIMTEKGGEAWRQPIFYPYMHASVYGRGESLKPLISSPKYDCSDFTDVPYVDAAVVYSEEEETLTIFAVNKAEDQMETEISLRGFESYQIAEHIVLEHQDIKATNQHNRKNVVPHSNGSSSVSENGLTAHFTPLSWNVIRLKKQS
notes: full ORF, codon-optimised, N-terminal His-tag (pET-28a), E. coli BL21(DE3), Ni-NTA purified, approx. 60 kDa; GH51
B2: BsAbfA (Bacillus subtilis subsp. subtilis str. 168; E173D) (protein)
chain: B1 chain with E173D
notes: as for B1
B3: BsAbfA (Bacillus subtilis subsp. subtilis str. 168; E292D) (protein)
chain: B1 chain with E292D
notes: as for B1
B4: BsAbfA (Bacillus subtilis subsp. subtilis str. 168; E292Q) (protein)
chain: B1 chain with E292Q
notes: as for B1
B5: BsAbfA (Bacillus subtilis subsp. subtilis str. 168; E173Q) (protein)
chain: B1 chain with E173Q
notes: as for B1

Residue numbers refer to the chain shown, from its start. Numbers in names are those of the source.

Substrate in this data set: O=[N+]([O-])c1ccc(O[C@@H]2O[C@@H](CO)[C@H](O)[C@H]2O)cc1
The data set can be described thus: purified protein. Type of data set: biochemical, Bacillus subtilis. Conditions: pH 5, 40 °C, 50 mM citric acid/sodium citrate.
B1: the Km (as a rule, the concentration of substrate that gives half-maximal velocity) is 600 ± 80 µM; the kcat – broadly, the number of substrate molecules converted per active site and unit of time at saturation – is 109 ± 8.6 s⁻¹; the specificity constant (kcat/Km) (usually the second-order rate constant that governs catalysis at low substrate concentration) was 182000 ± 6900 M⁻¹ s⁻¹.

In the case of B2, the Km was 200 ± 50 µM, the kcat stood at 0.5 s⁻¹ and the kcat/Km was 2500 ± 60 M⁻¹ s⁻¹.

Turning to B3, the Km stood at 700 ± 60 µM, the kcat was 0.9 ± 0.05 s⁻¹ and the kcat/Km is 1300 ± 30 M⁻¹ s⁻¹.

Regarding B4, the Michaelis constant (Km) stood at 700 ± 90 µM, the kcat amounted to 1.6 ± 0.04 s⁻¹ and the kcat/Km amounted to 2300 ± 50 M⁻¹ s⁻¹.

B5: the Km was found to be 400 ± 70 µM, the kcat is 2.5 ± 2.1 s⁻¹ and the kcat/Km is 6300 ± 90 M⁻¹ s⁻¹.
